Measurements from the nanobody polyreactivity screen of Harvey et al. (2022).

experiment: yeast display, Sf9 membrane polyspecificity reagent, FACS + sequencing; frameworks hold sequencing errors
Outline: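 Synthetic nanobody libraries on Saccharomyces cerevisiae BJ5465 were galactose-induced for 36–48 hours, stained 1 hour at 4 °C with 10% biotinylated, detergent-solubilized Sf9 membrane reagent and enriched on streptavidin microbeads. FACS then separated cells into low and high (top ~1%) gates by anti-HA (expression) and streptavidin (reagent binding) fluorescence. Genes were colony-PCR amplified, MiSeq 2 × 250 sequenced and CDR-length filtered. A clone's polyreactivity label is that of its gate of origin.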

Sequence | polyreactivity (PSR sort gate)
QVQLVESGGGLVQAGGSLRLSCAASGYSFVRNAMGWYIQAPGKERELVAAISGSGGSTYYADSVKGRFTISRDNAKNTVYLQMNSLKPEDTAVYYCAADYATVTWRGIAYDYWGQGTQVTVSS | low polyreactivity
QVQLVESGGGLVQAGGSLRLSCAASGYTFAANAMGWYRQSPGKERELVAAITSGGGSTYYADSVKGRFTISRDNAKNTVYLKMNSLNPEDTAVDYCAALQSHGVDFDNWGQGTQVTVSS | low polyreactivity
QVQLVESGGGLVQAGGSLRLSCAASGYTFAGYAMGWYRQAPGKERELVAAISQSGGRTYYADSVKGRFTISRDNAKNTVYLQMNSLKPEDTAVYYCNARAYYAGTYYVSRYYYWGQGTQVTVSS | high polyreactivity
QVQLVESGGGLVQAGGSLRLSCAASGYTFAGYAMGWYRQAPGKERELVAAISSSGGRTYYADSVKGRFTISRDNAKNTVDLQINSLKPEDTAVYYCAAYVWAYYVPYNYGYWGQGTQVTVSS | high polyreactivity
QVQLVESGGGLVQAGGSLRLSCAASGYTFASYDMGWYRQAPGKERELVAAIDWSGGSTYYADSVKGRFTISRDNAKNTVYLQMNSLKPEDTAVYYCAAERPWTYGSDGMDFWGQGTQVTVSS | low polyreactivity
QVQLVESGGGLVQAGGSLRLSCAASGYTFAWYAMGWYRQAPGKERELVAAITTSGGGTYYADSVKGRFTISRDNAKNTVYLQMNSLKPEDTAVYYCAADTWRDGDDYWGQGTQVTVSS | low polyreactivity
QVQLVESGGGLVQAGGSLRLSCAASGYTFDANDMGWYRQAPGTERELVARITWTGGNTYADSVKGRFTISRDNAKNTVYLQMNSLKPEDTAVYYCNAELGYVSSENYWGQGTQVTVTS | low polyreactivity
QVQLVESGGGLVQAGGSLRLSCAASGYTFDGYAMGWYRPAPGKERELVAAINSGGGTYYADSVKGRFTISRDYAKNTVYLQMNSLIPDDTAVYYCNKKAYRKTGLDYWGQGTQVTVSS | low polyreactivity
QVQLVESGGGLVQAGGSLRLSCAASGYTFDGYAMGWYRQAPGKERELVAVITKSGGRKYYADSVKGRFTISRDNAKNTVYLQMNSLKREVTAVYYCAADDSGTKDIVEGEYWGQGTQVTVSS | high polyreactivity
QVQLVESGGGLVQAGGSLRLSCAASGYTFDKYAMGWYRQAPGKERELVAAISSGGRTYYADSVKGRFTISRDNAKKTVYLQMNSLKPEDTAVYYCAKGSAGRGMDSWGQGTQVTVSS | low polyreactivity
QVQLVESGGGLVQAGGSLRLSCAASGYTFDPYDMGRYRQAPGKERELVASISWSGGDTYYADSVKGRFTISRDNAKNTVYLQMNSLKPEDTAVYYCAADRYIPRSIIMDYWGQGTQVTVSS | low polyreactivity
QVQLVESGGGLVQAGGSLRLSCAASGYTFDSYTMGWYRQAPGKERELFAAITRSGSSTYYADSVKGRFTISRDNAKNTVYLLMNSLKPEDTAVYYCAAGWRRAAGIQYWYGYWGQGTQVTVSS | high polyreactivity
QVQLVESGGGLVQAGGSLRLSCAASGYTFEFNVMGWYRQAPGKERELVASIRWGSTSYADSVKGRFTISRDNAKNTVYLQMNSLKPEDTAVYYCAAVTYDYWGQGTQVTVSS | low polyreactivity
QVQLVESGGGLVQAGGSLRLSCAASGYTFFFYAMGWYRQAPGKEREFVAAITWRGDSTYYADSVKGRFTISRDNAKNTVYLQMNSLKPEDTAVYYCAADPGFTWSRRMDYWGQGTQVTVSS | low polyreactivity
QVQLVESGGGLVQAGGSLRLSCAASGYTFFHNAMGWYRQAPGKERELVATISRGGGSTYYADSVKGRFTISRDNAKNTVYLQMNSLKPEDTAVYYCNKGVITYRRGYWGQGTQVTVSS | low polyreactivity
QVQLVESGGGLVQAGGSLRLSCAASGYTFFRYAMGWYRQAPGKERELVAAITGSGGRTYYADSVKGRFTISRDNAKNTVYLQMNSLKPEDTAVYYCNRYGSGHSFIYDYWGQGTQVTVSS | high polyreactivity
QVQLVESGGGLVQAGGSLRLSCAASGYTFGKYVMGWYRQAPGKERELVAAISISGSGTYYADSVKGRFTISRDNAKNTVYLQMNSLKPEDTAVYYCAARGYGFPELDYWGQGTQVTLSS | high polyreactivity
QVQLVESGGGLVQAGGSLRLSCAASGYTFGTYAMGWYRQAPGKERELVATISIGGITYYADSVKGRFTISRDNAKNTVYLQMNSLIPEDTAVYYCAKAVTDPTSRSDPTGDDYWGQGTQVTVSS | low polyreactivity
QVQLVESGGGLVQAGGSLRLSCAASGYTFGTYDMGWYRQAPGKERELVAAISIGGSTNYADSVKGRFTISRDNAKNTVYLQKNSLKPEDTAVYYCAAEVNVGTLLLSVIVEDGDYWGQGTQVTVSS | low polyreactivity
QVQLVESGGGLVQAGGSLRLSCAASGYTFGYNVMGWYRQAPGKERELVAVISSGGTTYYADSVKGRFTISRDNAKNTVYLQMNSLKPEDTAVYYCNKRSAYKFSTHYGYYYWGQGTQVNVSS | high polyreactivity
QVQLVESGGGLVQAGGSLRLSCAASGYTFGYYAMGWYRQAPGKERELVAAISLNGGSTYYADSVKGRFTISRDNAKNTVYLQMNSLKPEDSAVYYCNALYNYAEIYGRGYCGQGTQVTVSS | high polyreactivity
QVQLVESGGGLVQAGGSLRLSCAASGYTFIHNAMGWYRQAPGKERELVAAINRSGAITNYADSVKGRFTISRDNAKNTVYLQMNSLKPEDTAVYYCNADVDPLPPRYLHREVLKEYNYWGQGTQVTVSS | low polyreactivity

Sequence | polyreactivity (PSR sort gate)
QVQLVESGGGLVQAGGSLRLSCAASGYTFKSYFTGWYRQAPAKERELVAAITSIGGSTYYADSVKGRFTISRDNAKNTVYFLMNSVKPEDTEVYYCAKRRRGYAFSSDYWGPGTQVTVSS | high polyreactivity
QVQLVESGGGLVQAGGSLRLSCAASGYTFKYYAMAWYRQAPGKERELVAAITRSGGGTYYADSVKGRFTISRDNAKNTVYLQMNSLKPEDTAVYYCKAVLSSHGTDAGSYSYDYWGQGTQVTVSS | high polyreactivity
QVQLVESGGGLVQAGGSLRLSCAASGYTFLDYAMAWYRQAPGKERELVAAINSGGSTYYADSVKGRFTISRDNAKNTVYLQMNSLKPEDTAVYYCAREDYVSYRLLYYLFDYWGQGTQVTVSS | low polyreactivity
QVQLVESGGGLVQAGGSLRLSCAASGYTFLRNAMGWYRQAPGKERELVAAISYSGGGTYYPDSVMGRFTISRDHAKNTVYLKMNSLKPEDTAVYYCNVAQRYYGNFFSSRYESWGQGTQVTVSS | low polyreactivity
QVQLVESGGGLVQAGGSLRLSCAASGYTFLYYAMGWYRQAPGKERELVAAISSDGTTNYADSVKGRFTISRDNAKNTVYLQMNSLKPQVTAVYYCAADVFNWGYYYWGQGTQVTVSS | low polyreactivity
QVQLVESGGGLVQAGGSLRLSCAASGYTFNDYAMGWYRQARGKERELVASISSGGSTYYADSVKGRFTISRDNAKNTVYLQMNSLKPEDTAVYYCAAEWHYIYAYDYWGQGTQVTVSS | low polyreactivity
QVQLVESGGGLVQAGGSLRLSCAASGYTFNRYAMGWYRQAPGKERELVAAISKRGGSTNYADSVKGRFTISRDNAKNTVYLQMNSLKPEDTAVYYCAKRWRSYSRGGDYWGQGTQVTVSS | high polyreactivity
QVQLVESGGGLVQAGGSLRLSCAASGYTFNYYAMGWSRQAPGKEREFVASTYADSVKGRFTISRDNAKNTVYLQMNSLKPEDTAVYYCAAEGSYPAYDYWGQGTQVTVSS | low polyreactivity
QVQLVESGGGLVQAGGSLRLSCAASGYTFNYYAMGWYRQAPGKERELVAAIRSGGSTTYADSVKGRFTISRDNAKNTVYLQMNSLKPEDTAVYYCNADAGYWYRPAYDYWGQGTQVTVSS | low polyreactivity
QVQLVESGGGLVQAGGSLRLSCAASGYTFPLYAMGWYRQAPGKERELVADINIGGASTYYADSVKGRFTISRDNAKNTFYLQMKSLKPEDTAVYYCAKEYFDGFFPTFYYDYWGQGTQVTVSS | low polyreactivity
QVQLVESGGGLVQAGGSLRLSCAASGYTFPLYAMGWYRQAPGKERELVADINIGGASTYYADSVKGRFTISRDNAKNTVYLQMNSLKPEDTAVYYCAADSRKRQGYGYWGQGTQVTVSS | low polyreactivity
QVQLVESGGGLVQAGGSLRLSCAASGYTFPRYAMGWYRQAPGKERELVAAISRRGGSTYYADSVKGRFTISRDNAKNTVYLQMNSLKPEDTAVYYCAAATRQGYYSGSTRYDYWGQGTQVTVSS | high polyreactivity
QVQLVESGGGLVQAGGSLRLSCAASGYTFPRYTMGWYRQAPGKERELVAAINWSGGSTYYADSVKGRFTISRDNAKNTVYLQMNSLKPEDTAVYYCAAPVFHLYTDRMGYWGQGTQVTVSS | high polyreactivity
QVQLVESGGGLVQAGGSLRLSCAASGYTFPTNAMGWYRQAPGKERELVAAISIDDGITYYADSVKGRFTISRDNAKNTVYLQMNSLKPEDTAVYYCSAEVGIEYEYWGQGTQVTVSS | high polyreactivity
QVQLVESGGGLVQAGGSLRLSCAASGYTFPYYTMGWYRQAPGKERELVAAISSGGRTKYADSVKGRFTISRDNANNSVYVQMNSLKPEDTAVYYCSARSSYSFAFFWPAYNYWGQGTQVTVSS | high polyreactivity
QVQLVESGGGLVQAGGSLRLSCAASGYTFQSYAMAWYRQAPWKERELVAAIRYSGGSTYADSVKGRFTISRDNAKNTVYLQMNSLKPEDTAVYYCAARSNSLLFDYWGQGTQVTVSS | low polyreactivity
QVQLVESGGGLVQAGGSLRLSCAASGYTFRAYAMGWYRPAPGKERELVAAISRRGGSTYYADSVKGRFTISRDNAKNTVYLQMNSLKPEDTAVYYCAADFRSEHAEDYWGQGTQVTVSS | high polyreactivity
QVQLVESGGGLVQAGGSLRLSCAASGYTFRLYAMGWYRQAPVKERELVAAINTSGGRTYYADSVKGRFTISRDNAKNTVYLQMNSLKPEDTAVYYCATDWYWKRADIRPGDYWGQGTQVTVSS | low polyreactivity
QVQLVESGGGLVQAGGSLRLSCAASGYTFRNYAMGWYRQAPGKERELVAAISTRGVSTYYADSVKGRFTISRDNAKNTVYLQMNSLKPEDTADYYCAAAGGRYSRAAYDYWGQGTQVTVSS | low polyreactivity
QVQLVESGGGLVQAGGSLRLSCAASGYTFRQYAMGWYRQAPGKERELVAAIRYSGASTYYADSVKGRFTISRDNAKNTVYLQINSLKPEDTAVYYWNAALRLWGEYIYDYWGQGTQVTVSS | low polyreactivity
QVQLVESGGGLVQAGGSLRLSCAASGYTFRSNTMGWYRQAPGKERELVAAISGRGSSTYYADSVKGRFTISRDNAKNTVYLQMNSLKPEDTAVYYWNAPYNRATYNYWGQGTQVNVSS | high polyreactivity
